Measured values: the supplement of paper PMC10065799, “High-throughput profiling of sequence recognition by tyrosine kinases and SH2 domains using bacterial peptide display” (eLife, 2023)

Biological target: FGFR3 (UniProt P22607)
Test: phosphorylation enrichment, bacterial display (enrichment ratio); higher = better substrate or ligand; peptides without Tyr show the background
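Note: 11-residue human phosphosite peptides and single-mutation variants displayed on the E. coli surface, counted by deep sequencing, each peptide's frequency after selection divided by its frequency in the unselected input library; frequency after pTyr selection over input frequency; kinase dosed for 20-30% of maximal phosphorylation in three min.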

Sequence of FGFR3 (P22607 whole entry, looked up): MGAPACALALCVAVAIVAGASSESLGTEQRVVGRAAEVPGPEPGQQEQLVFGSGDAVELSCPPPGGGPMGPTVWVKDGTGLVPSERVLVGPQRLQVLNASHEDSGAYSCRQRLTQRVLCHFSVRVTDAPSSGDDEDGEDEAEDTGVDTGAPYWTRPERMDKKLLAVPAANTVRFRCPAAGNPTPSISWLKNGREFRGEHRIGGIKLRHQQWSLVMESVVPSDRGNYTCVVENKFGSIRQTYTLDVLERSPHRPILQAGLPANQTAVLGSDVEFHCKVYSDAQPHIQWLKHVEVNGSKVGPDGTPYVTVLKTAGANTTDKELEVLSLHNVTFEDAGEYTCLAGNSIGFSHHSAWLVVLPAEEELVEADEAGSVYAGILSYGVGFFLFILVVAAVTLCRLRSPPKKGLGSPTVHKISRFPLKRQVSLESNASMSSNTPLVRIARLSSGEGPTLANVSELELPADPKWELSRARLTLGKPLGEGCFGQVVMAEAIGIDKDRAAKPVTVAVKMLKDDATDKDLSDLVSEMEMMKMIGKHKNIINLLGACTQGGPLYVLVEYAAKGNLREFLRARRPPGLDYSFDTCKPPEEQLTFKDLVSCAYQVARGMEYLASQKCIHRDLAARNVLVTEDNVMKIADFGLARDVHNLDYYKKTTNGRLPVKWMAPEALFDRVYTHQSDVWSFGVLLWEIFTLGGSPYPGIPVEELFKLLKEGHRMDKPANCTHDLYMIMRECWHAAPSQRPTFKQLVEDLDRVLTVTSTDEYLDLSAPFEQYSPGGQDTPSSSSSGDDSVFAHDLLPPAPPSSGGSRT

**Q.** Which phosphorylation enrichment does the source give for MEIHAYRKLLE [LMNA_Y376] here?
**A.** The phosphorylation enrichment was 0.57.

**Q.** Which phosphorylation enrichment does the source give for IVRSPYEDLED [VHL_Y185_L184P] here?
**A.** The phosphorylation enrichment was 0.704.

**Q.** EVRAQYEEIAQ [KRT76_Y361] was tested. Which phosphorylation enrichment did it give?
**A.** Its phosphorylation enrichment is 0.98.

**Q.** For CTTIHYNFMCF [TP53_Y234_N239Y_YF], which phosphorylation enrichment is on record?
**A.** Its phosphorylation enrichment is 0.738.

**Q.** How did the phosphorylation enrichment turn out when RHPFFYAPELL [ALB_Y174_YF] was run?
**A.** Its phosphorylation enrichment is 0.969.

**Q.** Which phosphorylation enrichment does the source give for LIFTNYEAGKD [GSTP1_Y112_YF] here?
**A.** Its phosphorylation enrichment is 0.646.

**Q.** Which phosphorylation enrichment does the source give for QTEAQYRFIFM [PTPN11_Y511_YF] here?
**A.** Its phosphorylation enrichment is 1.02.

**Q.** Which phosphorylation enrichment does the source give for SLALFYRKVYH [RBL1_Y792] here?
**A.** The phosphorylation enrichment was 0.776.

**Q.** TSEASYFKSLN [NGEF_Y288_YF] was tested. Which phosphorylation enrichment did it give?
**A.** Its phosphorylation enrichment is 0.487.

**Q.** SVTCTYPPALN [TP53_Y126_S127P] was tested. Which phosphorylation enrichment did it give?
**A.** The phosphorylation enrichment was 0.578.

**Q.** With ILNANYMAKRL [GLDC_Y839] as the sequence, how does the phosphorylation enrichment read?
**A.** Its phosphorylation enrichment is 0.412.

**Q.** How did the phosphorylation enrichment turn out when VVKLTYNENDN [CAMKK2_Y183_A182T] was run?
**A.** The phosphorylation enrichment was 0.564.

**Q.** Which phosphorylation enrichment does the source give for LIFVSYDDWDY [GRIN2A_Y281_S278F] here?
**A.** Its phosphorylation enrichment is 1.77.

**Q.** Which phosphorylation enrichment does the source give for KQELVYTNKKL [OPTN_Y356] here?
**A.** The phosphorylation enrichment was 0.474.

**Q.** For VTPSEYLEIVR [TMEM130_Y412_E407V], which phosphorylation enrichment is on record?
**A.** The phosphorylation enrichment was 0.736.

**Q.** How did the phosphorylation enrichment turn out when ISDNACQYMLT [MYH7_Y162_Y162C] was run?
**A.** Its phosphorylation enrichment is 0.687.

**Q.** ETVHRYVELLD [AP1S3_Y87_I83T] was tested. Which phosphorylation enrichment did it give?
**A.** The phosphorylation enrichment was 0.746.

**Q.** RLLRGYDQLAY [HLA-C_Y137_S140L] was tested. Which phosphorylation enrichment did it give?
**A.** The phosphorylation enrichment was 0.976.

**Q.** ARVDTYCRHNY [HLA-DRB1_Y107_A103R] was tested. Which phosphorylation enrichment did it give?
**A.** Its phosphorylation enrichment is 0.698.

**Q.** How did the phosphorylation enrichment turn out when HHIDFYKKTTN [FGFR1_Y654_YF] was run?
**A.** The phosphorylation enrichment was 0.457.

**Q.** With HILFRYPKEFQ [IDS_Y234_P231L] as the sequence, how does the phosphorylation enrichment read?
**A.** Its phosphorylation enrichment is 0.92.

**Q.** Which phosphorylation enrichment does the source give for KLSCSYSHLSA [C4BPA_Y470_W473L] here?
**A.** Its phosphorylation enrichment is 0.742.

**Q.** For HAVYVCDICHV [TWNK_Y508_Y508C], which phosphorylation enrichment is on record?
**A.** The phosphorylation enrichment was 0.904.

**Q.** Which phosphorylation enrichment does the source give for ISIFRYAKGQP [MPZ_Y82_H81R] here?
**A.** The phosphorylation enrichment was 0.685.

**Q.** How did the phosphorylation enrichment turn out when RHPYFFAPELL [ALB_Y174_Y174F] was run?
**A.** Its phosphorylation enrichment is 13.9.

**Q.** With GCRSKSVGLWG [KCNQ1_Y184_Y184S] as the sequence, how does the phosphorylation enrichment read?
**A.** The phosphorylation enrichment was 0.382.

**Q.** With EDKFMYLEFPQ [PTEN_Y240_F241L] as the sequence, how does the phosphorylation enrichment read?
**A.** Its phosphorylation enrichment is 2.26.

**Q.** For PLQKTYNYNML [SLC4A1_Y553_V557M], which phosphorylation enrichment is on record?
**A.** Its phosphorylation enrichment is 0.678.

**Q.** Which phosphorylation enrichment does the source give for LEEFQYIGELQ [MSH2_Y856_S860L] here?
**A.** The phosphorylation enrichment was 1.08.

**Q.** With HVKHNYECLVF [XRCC5_Y416_I412V_YF] as the sequence, how does the phosphorylation enrichment read?
**A.** Its phosphorylation enrichment is 0.928.

**Q.** How did the phosphorylation enrichment turn out when RFQKLYLDRNL [IGFALS_Y248_L244F] was run?
**A.** The phosphorylation enrichment was 0.655.

**Q.** For MDDPRYGVCPL [ZNF100_Y6_M8V], which phosphorylation enrichment is on record?
**A.** The phosphorylation enrichment was 0.75.

**Q.** Which phosphorylation enrichment does the source give for ETAENYLGYTA [HSPA9_Y181_H184Y] here?
**A.** The phosphorylation enrichment was 0.784.

System: c-Abl (mouse)
Test: as above

**Q.** For MEIHAYRKLLE [LMNA_Y376], which phosphorylation enrichment is on record?
**A.** Its phosphorylation enrichment is 0.672.

**Q.** Which phosphorylation enrichment does the source give for IVRSPYEDLED [VHL_Y185_L184P] here?
**A.** The phosphorylation enrichment was 0.748.

**Q.** Which phosphorylation enrichment does the source give for EVRAQYEEIAQ [KRT76_Y361] here?
**A.** Its phosphorylation enrichment is 0.92.

**Q.** How did the phosphorylation enrichment turn out when CTTIHYNFMCF [TP53_Y234_N239Y_YF] was run?
**A.** The phosphorylation enrichment was 0.683.

**Q.** With RHPFFYAPELL [ALB_Y174_YF] as the sequence, how does the phosphorylation enrichment read?
**A.** Its phosphorylation enrichment is 1.12.

**Q.** How did the phosphorylation enrichment turn out when LIFTNYEAGKD [GSTP1_Y112_YF] was run?
**A.** The phosphorylation enrichment was 1.24.

**Q.** How did the phosphorylation enrichment turn out when QTEAQYRFIFM [PTPN11_Y511_YF] was run?
**A.** Its phosphorylation enrichment is 1.82.

**Q.** With SLALFYRKVYH [RBL1_Y792] as the sequence, how does the phosphorylation enrichment read?
**A.** Its phosphorylation enrichment is 0.593.

**Q.** With TSEASYFKSLN [NGEF_Y288_YF] as the sequence, how does the phosphorylation enrichment read?
**A.** Its phosphorylation enrichment is 0.51.

**Q.** With SVTCTYPPALN [TP53_Y126_S127P] as the sequence, how does the phosphorylation enrichment read?
**A.** Its phosphorylation enrichment is 0.97.

**Q.** With ILNANYMAKRL [GLDC_Y839] as the sequence, how does the phosphorylation enrichment read?
**A.** The phosphorylation enrichment was 0.394.

**Q.** For VVKLTYNENDN [CAMKK2_Y183_A182T], which phosphorylation enrichment is on record?
**A.** The phosphorylation enrichment was 0.551.

**Q.** Which phosphorylation enrichment does the source give for LIFVSYDDWDY [GRIN2A_Y281_S278F] here?
**A.** The phosphorylation enrichment was 1.49.

**Q.** KQELVYTNKKL [OPTN_Y356] was tested. Which phosphorylation enrichment did it give?
**A.** Its phosphorylation enrichment is 0.759.

**Q.** With VTPSEYLEIVR [TMEM130_Y412_E407V] as the sequence, how does the phosphorylation enrichment read?
**A.** The phosphorylation enrichment was 0.681.

**Q.** How did the phosphorylation enrichment turn out when ISDNACQYMLT [MYH7_Y162_Y162C] was run?
**A.** Its phosphorylation enrichment is 0.679.

**Q.** ETVHRYVELLD [AP1S3_Y87_I83T] was tested. Which phosphorylation enrichment did it give?
**A.** The phosphorylation enrichment was 0.613.

**Q.** How did the phosphorylation enrichment turn out when RLLRGYDQLAY [HLA-C_Y137_S140L] was run?
**A.** The phosphorylation enrichment was 0.477.

**Q.** How did the phosphorylation enrichment turn out when ARVDTYCRHNY [HLA-DRB1_Y107_A103R] was run?
**A.** Its phosphorylation enrichment is 0.797.

**Q.** For HHIDFYKKTTN [FGFR1_Y654_YF], which phosphorylation enrichment is on record?
**A.** The phosphorylation enrichment was 0.491.

**Q.** For HILFRYPKEFQ [IDS_Y234_P231L], which phosphorylation enrichment is on record?
**A.** Its phosphorylation enrichment is 0.744.

**Q.** For KLSCSYSHLSA [C4BPA_Y470_W473L], which phosphorylation enrichment is on record?
**A.** Its phosphorylation enrichment is 0.782.

**Q.** With HAVYVCDICHV [TWNK_Y508_Y508C] as the sequence, how does the phosphorylation enrichment read?
**A.** The phosphorylation enrichment was 0.972.

**Q.** Which phosphorylation enrichment does the source give for ISIFRYAKGQP [MPZ_Y82_H81R] here?
**A.** Its phosphorylation enrichment is 0.574.

**Q.** How did the phosphorylation enrichment turn out when RHPYFFAPELL [ALB_Y174_Y174F] was run?
**A.** Its phosphorylation enrichment is 1.19.

**Q.** For GCRSKSVGLWG [KCNQ1_Y184_Y184S], which phosphorylation enrichment is on record?
**A.** The phosphorylation enrichment was 0.477.

**Q.** With EDKFMYLEFPQ [PTEN_Y240_F241L] as the sequence, how does the phosphorylation enrichment read?
**A.** Its phosphorylation enrichment is 1.14.

**Q.** Which phosphorylation enrichment does the source give for PLQKTYNYNML [SLC4A1_Y553_V557M] here?
**A.** The phosphorylation enrichment was 0.816.

**Q.** With LEEFQYIGELQ [MSH2_Y856_S860L] as the sequence, how does the phosphorylation enrichment read?
**A.** Its phosphorylation enrichment is 1.33.

**Q.** How did the phosphorylation enrichment turn out when HVKHNYECLVF [XRCC5_Y416_I412V_YF] was run?
**A.** Its phosphorylation enrichment is 1.23.

**Q.** Which phosphorylation enrichment does the source give for RFQKLYLDRNL [IGFALS_Y248_L244F] here?
**A.** Its phosphorylation enrichment is 0.486.

**Q.** With MDDPRYGVCPL [ZNF100_Y6_M8V] as the sequence, how does the phosphorylation enrichment read?
**A.** Its phosphorylation enrichment is 0.918.

**Q.** ETAENYLGYTA [HSPA9_Y181_H184Y] was tested. Which phosphorylation enrichment did it give?
**A.** Its phosphorylation enrichment is 0.691.
